Two molecules from patent CN114409766A (AGRICULTURAL UNIV IN CHINA, dated 2022) can be followed below.

The target of the test is T1, EBV病毒颗粒 (gp350 on EB virus particles) (Epstein-Barr virus, UniProt P03200 1-907).
T1 construct: also called EBV颗粒; UV-EBV病毒颗粒
T1 sequence (looked up): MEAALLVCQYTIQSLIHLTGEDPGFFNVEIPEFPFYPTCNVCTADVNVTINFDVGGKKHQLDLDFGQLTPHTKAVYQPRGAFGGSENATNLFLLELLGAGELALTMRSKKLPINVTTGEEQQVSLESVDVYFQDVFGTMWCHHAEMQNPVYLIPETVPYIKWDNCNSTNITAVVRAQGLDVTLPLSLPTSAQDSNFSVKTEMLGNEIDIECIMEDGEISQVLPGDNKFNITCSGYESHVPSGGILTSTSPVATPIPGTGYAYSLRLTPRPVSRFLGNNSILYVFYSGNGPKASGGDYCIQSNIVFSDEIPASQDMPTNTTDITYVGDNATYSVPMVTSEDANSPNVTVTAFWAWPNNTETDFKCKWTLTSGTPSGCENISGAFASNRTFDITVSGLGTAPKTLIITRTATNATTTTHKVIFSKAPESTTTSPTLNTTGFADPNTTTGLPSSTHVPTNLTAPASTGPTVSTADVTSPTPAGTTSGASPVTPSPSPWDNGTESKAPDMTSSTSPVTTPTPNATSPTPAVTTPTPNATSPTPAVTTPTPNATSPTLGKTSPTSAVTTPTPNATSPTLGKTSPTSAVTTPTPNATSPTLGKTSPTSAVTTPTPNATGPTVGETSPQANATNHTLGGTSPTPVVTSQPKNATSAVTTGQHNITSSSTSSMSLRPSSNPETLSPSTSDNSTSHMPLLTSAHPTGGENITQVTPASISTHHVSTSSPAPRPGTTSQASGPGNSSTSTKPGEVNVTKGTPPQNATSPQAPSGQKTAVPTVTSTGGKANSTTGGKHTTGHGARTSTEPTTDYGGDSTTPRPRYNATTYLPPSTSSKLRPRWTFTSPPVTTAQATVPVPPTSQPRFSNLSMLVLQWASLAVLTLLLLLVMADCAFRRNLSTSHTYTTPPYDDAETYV
Description: ELISA, EBV particles coated, titrated binder.

B1: 单克隆抗体R1 (scFv fused to FLAG tag or hFc) (scFv)
scFv: QSVKESEGGLFKPTDTLTLTCTVSGFSLSSNAISWVRQAPGNGLEYIGYISYRGNTYYASWARSRSTITRNTNENTVTLKMTRLTAADTATYFCARIRSYSRANGHADGFDPWGPGTLVTVSSGGGGSGGGGSGGGGSDVVMTQTPSSVSAAVGGTVTINCQASESISNLLAWYQQKPGQPPKLLIYGASNLESGVPSRFRGSGSGTQFTLTISGVKDEDVATYYCQSGRYAAGATFGAGTNVEIK
notes: also called R1抗体; 单抗R1
Consider B1, for which the binding result is listed as “binds”.

B2: 单克隆抗体R9 (scFv fused to FLAG tag or hFc) (scFv)
scFv: QSVKESEGGLFKPTDTLTLTCTVSGSSLRSYGVSWVRQAPGTGLEWIGAIGRSGSAYYASWAKSRSTITRNTNDNTVTLKMTSLTAADTATYFCARAYFGNSIGPFNIWGPGTLVTVSSGGGGSGGGGSGGGGSAIVLTQTPSSVSAPVGGTVTINCQASQSVSNLLAWYQQKPGQPPKLLIYGASNLESGVPSRFRGSGSGTQFTLTISGVKAEDVAAYYCHQHSSFPLTFGAGTKVEIK
For B2, the binding result was “binds”.
